Results on 59 molecules are retold here after patent US20180291082A1 (IMMATICS BIOTECHNOLOGIES, published 2018).

Where only a bound is given, the exact number is not on record here.

In one experiment the target is T1, human recombinant HLA-B*08:01 (human).
T1 construct: Expressed in E. coli and purified; Assay done by ImmunAware
In words: pMHC dissociation at 37 C (b2m on heavy chain); mean half-life grade (+ >2 h, ++ >4 h, +++ >6 h, ++++ >10 h). The method, then: The peptide-MHC stability for HLA-B*08:01 peptides was performed by ImmunAware (Copenhagen, Denmark). The data were obtained using a proximity based, homogenous, real-time assay to measure the dissociation of peptides from HLA class I molecules. First human recombinant HLA-B*08:01 and b2m were expressed in E. coli and purified in a series of liquid chromatography based steps (Ferre et al., 2003; Ostergaard et al., 2001). Afterwards, the stability of a peptide-MHC complex (pMHC) can be determined by measuring the amount of b2m associated with the MHC heavy chain over time at 37° C. (Harndahl et al., 2012). The stability of each pMHC, expressed as the half life of b2m associated with the respective heavy chain, was calculated by fitting the data to a one-phase dissociation equation.
On to AAMSRYEL, for which the “mean half-life (T1/2) of peptide-MHC complex” value was in the range of 4 to 6 h.

Another experiment addresses T2, HLA-A*24:02 (human).
T2 construct: Peptide-receptive MHC monomer made by UV cleavage of a UV-sensitive peptide
Description: UV-ligand exchange, anti-b2m ELISA; exchange yield grade (+ >10%, ++ >20%, +++ >50, ++++ >75%). Summed up: (§1)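 Peptide-MHC complexes formed by UV-triggered exchange of a cleavable ligand for the test peptide. Exchange yield measured on streptavidin-coated plates by HRP anti-β2m ELISA (1 h, 37 °C; A450) on 100-fold diluted samples. Refolded HLA-A*02:01 monomers at 15-500 ng/ml served as standards.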
(In general: ELISA stands for enzyme-linked immunosorbent assay.)
Molecule EYNNIQHLF gave a peptide exchange yield of 50 to 75%. Molecule TFQDKTLNF came in with a peptide exchange yield of 50 to 75%. The same measure, in the same setting: the figure for TYLTGRQF is 20 to 50%; for KFLDSNIKF it is 50 to 75%. As for IYGPKYIHPSF, the peptide exchange yield was above 75%. On to YFEEAANFL, for which the peptide exchange yield was 20 to 50%. The molecule VWAKILSAF came in with a peptide exchange yield of 50 to 75%. For the molecule KYLSIPAVFF, the peptide exchange yield is above 75%.

On to VYGDGHYLTF, for which the peptide exchange yield lay within 50 to 75%. Same read-out and setting: the figure for NFLPPIIARF is above 75%. Regarding VIAPIISNF, the peptide exchange yield was in the range of 50 to 75%. For the molecule TYISKTIAL, the peptide exchange yield lay within 50 to 75%. In the case of KYLSIPTVF, the peptide exchange yield was above 75%. In the case of KYLSIPAVF, the peptide exchange yield is above 75%. For SFDSNLLSF, the peptide exchange yield fell in the range of 10 to 20%. For SYIEKVRFL, the peptide exchange yield was 50 to 75%. MYAKEFDLL: the peptide exchange yield is 50 to 75%. Regarding KYLSLSNSF, the peptide exchange yield is above 75%. As to LVLDYSKDYNHW, the peptide exchange yield was 10 to 20%. Same read-out and setting: the figure for KLYGMPTDFGF is 20 to 50%; for SYTKVEARL it is 50 to 75%; for PYASLASELF it is above 75%. With VFLNQIYTQL, the peptide exchange yield lay in the range of 20 to 50%.

For IFINLSPEF, the peptide exchange yield was above 75%.

In turn, RQYLAINQI registered a peptide exchange yield of 10 to 20%.

The target of the next experiment is T3, HLA-A*02:01 (human).
T3 construct: Peptide-receptive MHC monomer made by UV cleavage of a UV-sensitive peptide
Described as above. Summed up: as §1
Molecule YVSSGEMMV came in with a peptide exchange yield of 50 to 75%.

Molecule RLFGLFLNNV gave a peptide exchange yield above 75%.

Molecule KIDDIWNLEV returned a peptide exchange yield of 50 to 75%. Turning to GLMTIVTSL, the peptide exchange yield is above 75%.

GLTGVIMTI gave a peptide exchange yield above 75%.

The molecule SLQDTKITL had a peptide exchange yield of 50 to 75%.

ELMPRVYTL: the peptide exchange yield was 50 to 75%. Same read-out and setting: the figure for FLNQIYTQL is above 75%; for VLITGLPLI it is above 75%. As to RLWQIQHHL, the peptide exchange yield is 50 to 75%. Same read-out and setting: under GLPDFVKEL stands above 75%; under KMMALVAEL, above 75%; under KMILKMVQL, 10 to 20%. Molecule YLLPSVVLL had a peptide exchange yield above 75%. KLHEIYIQA gave a peptide exchange yield above 75%.

VMLNSNVLL yielded a peptide exchange yield above 75%.

Take YLPPTDPRMSV: the peptide exchange yield was above 75%. For KLLDEVTYL, the peptide exchange yield fell in the range of 50 to 75%. Take ALFPERITV: the peptide exchange yield was above 75%. As for ALAAELNQL, the peptide exchange yield is 50 to 75%. On to SQTGFVVLV, for which the peptide exchange yield is 20 to 50%. The molecule RLASRPLLL yielded a peptide exchange yield of 50 to 75%.

In turn, LLMTSLTES registered a peptide exchange yield of 50 to 75%.

On to YQDSWFQQL, for which the peptide exchange yield lay within 50 to 75%.

A further experiment addresses T4, HLA-B*07:02 (human).
T4 construct: Peptide-receptive MHC monomer made by UV cleavage of a UV-sensitive peptide
The experiment is described as above. In outline:
as §1
Molecule HPIETLVDIF yielded a peptide exchange yield of 20 to 50%. Still for that read-out and setting: under SPLRGGSSL stands 20 to 50%; under VPSLQRLML, 50 to 75%; under LPALPQQLI, 50 to 75%. In turn, APSGTRVVQVL displayed a peptide exchange yield of 20 to 50%. In the case of LPDGSRVEL, the peptide exchange yield is 20 to 50%. As to KPAHYPLIAL, the peptide exchange yield lay within 50 to 75%. Still for that read-out and setting: the figure for MVPSAGQLALF is 20 to 50%. Molecule RPAVGHSGL registered a peptide exchange yield of 20 to 50%.
